Where “and” joins values, the source holds several entries; their conditions need not be identical. Equal values may be shown once. Read-outs that look alike come from different tables or passages of the source.
Columns and labels:
[1] = tested on: reporter viruses pseudotyped with HIV-1JR-FL envelope; type: cell-based; set-up: CI90: unit not given beside the values; details: for IC90 / IC50: 1st inhibitor alone, HIV-1 envelope JRFL; for CI90 / CI50: envelope JRFL
From the text: HIV-1 pseudoparticles (HIV-1pp) are generated in 293T cells by transient coexpression of an HIV-1-based NL4/3luc+env− plasmid and a construct encoding HIV-1JRFL Env. The NL4/3luc+env− plasmid was obtained from the NIH AIDS Research and Reference Reagent Program (Cat. No. 3418), and the HIV-1JRFL Env was inserted into the pcDNA3.1 vector (Invitrogen). Briefly, 293T cells are calcium phosphate transfected with a 1:1 ratio of NL4/3luc+env− reporter vector and Env expression vector in Hepes buffer (Profection Mammalian Transfection Kit, Promega). After 16 h the transfection medium is aspirated and fresh cell culture medium (DMEM with 10% FBS, glutamine and antibiotics) is added and the incubation is continued at 37° C. for an additional 24-32 h. Cell culture supernatants are collected 48 h post-transfection and centrifuged at 1,400 rpm for 10 min to pellet cell debris. The viral supernatant is brought to a final concentration of 5% sucrose and stored aliquoted at −80° C.
U87-CD4-CCR5 cells were obtained from the NIH AIDS Research and Reference Program (Cat. No. 4035). These cells are maintained in culture medium (DMEM with 10% FBS, antibiotics and glutamine) containing 0.3 mg/ml G418 and 0.5 mg/ml puromycin. Cells are grown in T175-cm^2 flasks at 37° C. and diluted 1:5 every 3-4 days. For assay plate preparation, cells are trypsinized and seeded into wells of 96-well tissue-culture treated flat bottom opaque polystyrene plates (Perkin Elmer, Boston, Mass.) at a density of 3×10^3 cells/well. Plates are incubated for no more than 4 h at 37° C. in a humidified 5% CO2 incubator prior to their use in the HIV-1 pp susceptibility assay.
Fifty μl of diluted compound at 4× the desired final concentration are added per well. For compounds solubilized in DMSO, the 4× stock will contain 2% DMSO (such that the final DMSO concentration in the assay is always 0.5% for small molecules). Control wells receiving no compound are included on each plate. In addition, an AZT inhibition control is included in each assay. Compounds are tested individually and at a fixed mass or molar ratio over a broad range of concentrations.
A vial of frozen, aliquoted HIV-1pp is thawed in a 37° C. waterbath and then placed on wet ice. Virus is diluted in cold cell culture medium as necessary to achieve the desired final virus concentration in the HIV-1pp assay (about 10,000 relative light units (rlu) per well). 50 μl of diluted virus are added per well, bringing the final well volume to 200 μl. A no-virus control (minimum or background luminescence) and a no-compound control (maximum luminescence) are included on each plate. The plates are incubated for 72 h at 37° C. in a humidified 5% CO2 incubator followed by processing for luciferase signal (see below).
Assay medium is aspirated and 200 μl of PBS are added to each well. […] Assay plates are then frozen for at least 2 h at −80° C. followed by thawing at room temperature and vigorous mixing with an electronic pipettor. 25 μl from each well are transferred to an opaque 96-well plate (Costar #3922). Four replicates are pooled into the same well on the opaque plate. 100 μl of freshly thawed and reconstituted luciferase substrate (Luciferase Assay System, Promega—Cat. No. E1501) are added to each well of the plate with the electronic pipettor, and luminescence is detected immediately on a Dynex MLX plate reader set to medium gain.
The percent inhibition is derived as follows: [1−(luciferase activity in the presence of drug/luciferase activity in the absence of drug)]×100. IC50 values are determined by fitting the inhibition data with a non-linear, four-parameter, variable slope equation (GraphPad Prism, ver. 4.02; GraphPad Software, San Diego, Calif.). Upper and lower inhibition values are constrained to 100% and 0%, respectively for curve fitting. […]

[2] = target: T1, CCR5 (Homo sapiens, UniProt P51681); experiment: Competition binding: inhibition of PRO 140-PE binding to CEM.NKR-CCR5 cells (flow cytometry)
T1 construct: host or cells: CEM.NKR-CCR5 (transduced human T cell leukemia line)
Method: Inhibition was assessed on the basis of both MFI (A) and percent cells gated (B).
Azide was added to block CCR5 internalization during the assay.

[3] = tested on: R5 HIV-1 CC 1/85; experiment: Inhibition of replication in PBMC cultures, RT activity readout: HIV-1 CC 1/85; type: cell-based
Method: Viruses: All virus isolates were grown and titered exclusively in stimulated PBMC as described previously. […] The HIV-2 isolates used in this study have been previously described (Owen, S. M., Ellenberger, D., Rayfield, M., Wiktor, S., Michel, P., Grieco, M. H., Gao, F., Hahn, B. H., and Lai, R. B. 1998. Genetically Divergent Strains of Human Immunodeficiency Virus Type 2 Use Multiple Coreceptors for Entry. J Virol 72:5425-5432) and were obtained from the NIH AIDS Research and Reference Reagent Program.
PA14 (Lot # DF-021204) was produced for reagent use in the Research & Development laboratories of Progenics Pharmaceuticals Inc.
Inhibition of HIV-1 and HIV-2 replication in PBMC cultures: PBMC were isolated from 34 healthy blood donors with Ficoll-Hypaque (all media from Cellgro, Herndon, Va.) and depleted of CD8+ cells using RosetteSep CD8 depletion cocktail (StemCell Technologies) according to the manufacturer's instructions. Equal numbers of cells from each donor were then separately stimulated with 5 ug phytohemagglutinin/ml (Sigma, St. Louis, Mo.) or with surface-immobilized anti-CD3 antibody OKT3 in RPMI 1640 medium containing 10% fetal calf serum, 100 Units of interleukin-2/ml (NIH AIDS Research and Reference Reagent Program), glutamine, and antibiotics (PBMC culture medium) as previously described. After 72 hours, equal numbers of PBMC stimulated by one of these two methods from each donor were combined for use in infection assays as follows. […] The virus inoculum was adjusted to 400 to 2,000 times the TCID50 per ml in PBMC culture medium, and a 50-ul aliquot was added to each culture. The inhibitory doses refer to the concentrations of the agents present at this point in the culture, when virus, cells, and inhibitors were all present at their final concentrations. Reverse Transcriptase (RT) activity was measured on Day 7 post infection (pi) for HIV-1 and Day 10 pi for HIV-2 by the Reverse Transcriptase Assay, Colorimetric kit, #11 468 120 910, Roche (Switzerland) according to the manufacturer's instructions with the following exception: neither ultracentrifugation nor PEG precipitation of the culture supernatants was performed before viral lysis.
The inhibition data were analyzed using GraphPad Prism software (GraphPad Software, San Diego, Calif.). A 4-parameter logistic fit was used calculate the concentration of inhibitor that afforded a 50% and a 90% reduction in RT activity. […] The % inhibitions where best-fit curve reached a top plateau, also as calculated by GraphPad Prism software, are reported as well as maximum percent inhibition (MPI). […] Inhibition curves with a poor sigmoid fit (R^2<0.7) were excluded from data analysis.

[4] = labelled 1st inhibitor with 2nd inhibitor PRO 140, equimolar (1:10 PRO 140 to zidovudine or nevirapine)
[5] = CC 1/85, current study n = 5, mean

T1 sequence (P51681 whole entry): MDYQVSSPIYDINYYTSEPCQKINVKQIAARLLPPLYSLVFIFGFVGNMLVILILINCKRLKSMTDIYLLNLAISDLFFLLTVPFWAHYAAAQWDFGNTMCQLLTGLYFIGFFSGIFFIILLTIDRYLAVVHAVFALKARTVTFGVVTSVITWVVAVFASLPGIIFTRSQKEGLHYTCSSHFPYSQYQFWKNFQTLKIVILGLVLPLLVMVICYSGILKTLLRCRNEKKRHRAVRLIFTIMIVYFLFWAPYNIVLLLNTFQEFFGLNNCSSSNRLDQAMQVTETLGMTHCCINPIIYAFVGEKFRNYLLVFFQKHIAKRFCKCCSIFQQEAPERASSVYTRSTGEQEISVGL

COC[C@@H](c1ccc(C(F)(F)F)cc1)N1CCN(C2(C)CCN(C(=O)c3c(C)ncnc3C)CC2)C[C@@H]1C [SCH-D, 1-[(4,6-dimethyl-5-pyrimidinyl)carbonyl]-4-[4-[2-methoxy-1(R)-4-(trifluoromethyl)phenyl]ethyl-3(S)-methyl-1-piperazinyl]-4-methylpiperidine]
IC90 ([1]; read-out: IC90): 44 nM | percent of cells gated for positive binding of PRO 140-PE ([2]; result in words (FIG. 12B)): little impact

Cc1nnc(C(C)C)n1C1CC2CCC(C1)N2CC[C@H](NC(=O)C1CCC(F)(F)CC1)c1ccccc1 (some centres unmarked) [UK-427,857]
IC50 [1]: 7.4 nM | IC90 [1]: 46 nM | CI90 ([1]; labelled 1st inhibitor with 2nd inhibitor SCH-D): 1.2 ± 0.15

COc1ccnc2[nH]cc(C(=O)C(=O)N3CCN(C(=O)c4ccccc4)C[C@H]3C)c12 [BMS-378806, (R)-N-(benzoyl)-3-methyl-N′-[(4-methoxy-7-azaindol-3-yl)-oxoacetyl]-piperazine]
CI50 [1, 4]: 1.2 ± 0.38 | CI90 [1, 4]: 0.74 ± 0.23

B1: PRO 140: humanized IgG4,κ anti-CCR5 monoclonal antibody, humanized version of murine mAb PA14 (antibody, chains of the INN, looked up, V domains shown)
VH: EVQLVESGGGLVKPGGSLRLSCAASGYTFSNYWIGWVRQAPGKGLEWIGDIYPGGNYIRNNEKFKDKTTLSADTSKNTAYLQMNSLKTEDTAVYYCGSSFGSNYVFAWFTYWGQGTLVTVSS
VL: DIVMTQSPLSLPVTPGEPASISCRSSQRLLSSYGHTYLHWYLQKPGQSPQLLIYEVSNRFSGVPDRFSGSGSGTDFTLKISRVEAEDVGVYYCSQSTHVPLTFGQGTKVEIK
IC50 ([1]; read-out: IC50): 2.2 nM | IC90 ([1]; read-out: IC90): 28 nM | CI50 [1, 4]: 1.2 ± 0.32 | CI90 [1, 4]: 0.90 ± 0.15 | EC90 ([2]; based on percent cells gated, 5 nM PRO 140-PE): 17 nM | EC50 (mean) [3, 5]: <7.7 µg/mL | EC90 (mean) [3, 5]: 23 µg/mL | EC90 (median) ([3]; HIV-1 CC 1/85, R5, median, current study n = 5): 6.0 µg/mL | MPI (maximum percent inhibition) ([3]; R5 HIV-1 CC 1/85, individual assays (Source)): 94% and 93% and 102% and 95% | MPI, Median ([3]; R5 HIV-1 CC 1/85, median of assays): 95%
